From US20200268910A1 (SANFORD BURNHAM PREBYS MEDICAL DISCOVERY INSTITUTE, published 2020)
Bridge positions count the residues as written; N and C are the ends. Ends that are not written are not given here. FAM = 5(6)-carboxyfluorescein; Ahx = NCCCCCC(=O)O

What was measured:
[1] = target: mouse CD206 on peritoneal cells from 4T1 tumor-bearing mice (mouse) (UniProt Q61830); assay: flow cytometry on peritoneal cells of 4T1 tumor mice; 10 µg/mL antibody, then FAM-UNO at 0.5 µg/mL
[2] = target: T1, recombinant human macrophage mannose receptor rhMMR/CD206 (human, UniProt P22897 19-1383, limits assumed); assay: fluorescence anisotropy, in solution, kinetic mode
T1 construct: Bought recombinant protein; also called human recombinant CD206; hCD206
T1 sequence (looked up): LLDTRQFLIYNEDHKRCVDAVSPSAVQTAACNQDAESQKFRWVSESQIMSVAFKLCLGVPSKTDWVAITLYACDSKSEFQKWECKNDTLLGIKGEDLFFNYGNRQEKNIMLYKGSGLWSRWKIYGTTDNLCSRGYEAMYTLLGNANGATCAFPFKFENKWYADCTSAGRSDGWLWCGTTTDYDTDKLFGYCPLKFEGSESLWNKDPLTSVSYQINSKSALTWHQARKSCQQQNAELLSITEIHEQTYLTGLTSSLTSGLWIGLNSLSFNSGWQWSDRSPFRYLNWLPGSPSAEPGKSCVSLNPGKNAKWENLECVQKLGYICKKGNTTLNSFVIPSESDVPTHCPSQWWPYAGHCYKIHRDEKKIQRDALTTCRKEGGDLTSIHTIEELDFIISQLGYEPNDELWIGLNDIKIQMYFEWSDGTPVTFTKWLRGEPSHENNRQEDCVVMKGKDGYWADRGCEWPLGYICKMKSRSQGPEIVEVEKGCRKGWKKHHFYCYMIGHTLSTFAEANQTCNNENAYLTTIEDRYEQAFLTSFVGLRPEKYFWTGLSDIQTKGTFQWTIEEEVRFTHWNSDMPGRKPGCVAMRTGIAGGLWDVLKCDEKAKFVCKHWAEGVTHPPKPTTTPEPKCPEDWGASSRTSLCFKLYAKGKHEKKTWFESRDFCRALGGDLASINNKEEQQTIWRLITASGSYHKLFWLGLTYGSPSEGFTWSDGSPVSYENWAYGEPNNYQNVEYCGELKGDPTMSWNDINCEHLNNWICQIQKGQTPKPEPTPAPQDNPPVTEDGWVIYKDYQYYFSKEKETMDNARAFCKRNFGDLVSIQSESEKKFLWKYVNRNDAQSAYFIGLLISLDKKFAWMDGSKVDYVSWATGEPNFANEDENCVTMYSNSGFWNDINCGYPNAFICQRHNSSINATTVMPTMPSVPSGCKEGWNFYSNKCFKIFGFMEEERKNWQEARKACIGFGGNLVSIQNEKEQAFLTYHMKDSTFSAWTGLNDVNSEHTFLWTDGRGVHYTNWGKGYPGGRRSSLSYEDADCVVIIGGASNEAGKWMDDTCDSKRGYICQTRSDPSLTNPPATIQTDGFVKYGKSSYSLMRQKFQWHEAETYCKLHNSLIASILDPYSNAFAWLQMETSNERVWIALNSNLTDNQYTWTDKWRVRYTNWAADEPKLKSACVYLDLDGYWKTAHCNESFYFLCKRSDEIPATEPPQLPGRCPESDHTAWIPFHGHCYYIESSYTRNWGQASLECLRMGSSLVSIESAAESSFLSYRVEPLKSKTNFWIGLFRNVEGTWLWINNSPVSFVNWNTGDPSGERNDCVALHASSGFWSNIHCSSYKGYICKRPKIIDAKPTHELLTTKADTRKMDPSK

[3] = target: T2, mouse CD206 on peritoneal cells from 4T1 tumor-bearing mice (mouse, UniProt Q61830 20-1456); assay: flow cytometry on peritoneal cells, legend of FIG. 4D
T2 construct: whole, on cells; Primary cells that carry many other proteins; also called MRC1; mannose receptor
T2 sequence (looked up): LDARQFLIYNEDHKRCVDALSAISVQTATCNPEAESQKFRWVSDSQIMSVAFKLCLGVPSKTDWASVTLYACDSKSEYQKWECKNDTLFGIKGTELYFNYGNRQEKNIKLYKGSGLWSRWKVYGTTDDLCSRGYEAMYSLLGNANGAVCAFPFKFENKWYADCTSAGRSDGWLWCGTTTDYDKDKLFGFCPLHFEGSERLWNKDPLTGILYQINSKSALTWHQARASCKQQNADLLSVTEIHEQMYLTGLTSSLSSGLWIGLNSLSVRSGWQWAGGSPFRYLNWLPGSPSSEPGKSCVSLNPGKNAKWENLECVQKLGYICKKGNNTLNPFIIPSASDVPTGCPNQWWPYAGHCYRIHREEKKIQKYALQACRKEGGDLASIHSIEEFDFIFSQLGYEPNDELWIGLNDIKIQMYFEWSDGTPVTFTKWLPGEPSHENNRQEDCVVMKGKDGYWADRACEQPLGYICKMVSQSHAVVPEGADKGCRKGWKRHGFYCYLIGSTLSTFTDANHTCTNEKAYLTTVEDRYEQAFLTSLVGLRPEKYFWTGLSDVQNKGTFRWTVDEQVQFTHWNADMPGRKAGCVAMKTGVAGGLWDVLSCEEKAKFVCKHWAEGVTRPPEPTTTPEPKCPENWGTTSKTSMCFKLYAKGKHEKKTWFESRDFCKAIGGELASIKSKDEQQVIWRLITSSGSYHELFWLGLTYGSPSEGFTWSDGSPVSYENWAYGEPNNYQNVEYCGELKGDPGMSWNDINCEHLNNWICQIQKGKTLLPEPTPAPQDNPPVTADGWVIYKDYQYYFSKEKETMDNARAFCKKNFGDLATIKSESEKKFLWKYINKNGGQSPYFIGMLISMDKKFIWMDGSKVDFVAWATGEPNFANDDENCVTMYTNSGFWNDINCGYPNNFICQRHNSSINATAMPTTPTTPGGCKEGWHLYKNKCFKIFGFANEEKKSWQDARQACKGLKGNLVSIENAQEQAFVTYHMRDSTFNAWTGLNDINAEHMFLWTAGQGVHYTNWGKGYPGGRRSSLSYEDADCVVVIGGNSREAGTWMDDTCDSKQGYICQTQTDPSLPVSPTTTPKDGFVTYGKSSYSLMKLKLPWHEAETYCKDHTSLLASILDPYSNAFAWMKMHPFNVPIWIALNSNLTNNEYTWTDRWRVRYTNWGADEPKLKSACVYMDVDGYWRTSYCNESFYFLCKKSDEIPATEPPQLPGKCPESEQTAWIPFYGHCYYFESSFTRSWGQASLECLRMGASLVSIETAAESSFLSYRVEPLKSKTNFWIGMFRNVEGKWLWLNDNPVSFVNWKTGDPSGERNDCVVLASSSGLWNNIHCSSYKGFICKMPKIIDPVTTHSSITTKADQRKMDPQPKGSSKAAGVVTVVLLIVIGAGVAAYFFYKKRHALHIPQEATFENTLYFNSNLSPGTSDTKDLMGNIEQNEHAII
Description: Mice were anesthetized and intraperitoneally injected with 5 mL of PBS+1% BSA, the abdomen was massaged to detach macrophages and the peritoneal fluid was collected. This procedure typically yielded 5-9×10⁶ cells. Cells were concentrated to 1 mL in the same peritoneal fluid. For FAM-peptide incubation, the peptides were incubated for 30 minutes at 4° C. For antibody incubation the cells were incubated with antibody for 1 h at 4° C. A647 Rat anti-CCR2 (Biolegend, CA, USA. Catalog number 150603) was incubated for 1 h at 4° C. at a dilution of 1/200. FAM-peptides were incubated at a concentration of 0.5 μg/mL, and Rat anti-CD206 (Bio-Rad, CA, USA. Product code MCA2235GA) was incubated at a concentration of 10 μg/mL. Binding of FAM-peptides was monitored with 488 nm channel and CCR2 labeling was assessed in the 647 nm channel using A647 Anti-CCR2 (Biolegend, CA, USA). After incubation of FAM-Peptides or antibodies, the cells were washed 3 times at 4° C. with PBS-Tby centrifugation at 250 g for 6 minutes, followed by flow cytometry analysis (Accuri, BD Biosciences, CA, USA).
The effect of a blocking anti-CD206 antibody on FAM-UNO binding to peritoneal cells isolated from 4T1 tumor mice was studied. Flow cytometry experiments were performed by incubating FAM-peptide with the cells suspended in the peritoneal fluid; this i.p. fluid also contained glutathione (FIG. 24). […]

recombinant mouse CD163 = recombinant mouse CD163 (mouse, UniProt Q2VLH6 39-1045, limits assumed); assay: fluorescence anisotropy, in solution, kinetic mode
recombinant mouse CD163, sequence (Q2VLH6 39-1045 limits assumed): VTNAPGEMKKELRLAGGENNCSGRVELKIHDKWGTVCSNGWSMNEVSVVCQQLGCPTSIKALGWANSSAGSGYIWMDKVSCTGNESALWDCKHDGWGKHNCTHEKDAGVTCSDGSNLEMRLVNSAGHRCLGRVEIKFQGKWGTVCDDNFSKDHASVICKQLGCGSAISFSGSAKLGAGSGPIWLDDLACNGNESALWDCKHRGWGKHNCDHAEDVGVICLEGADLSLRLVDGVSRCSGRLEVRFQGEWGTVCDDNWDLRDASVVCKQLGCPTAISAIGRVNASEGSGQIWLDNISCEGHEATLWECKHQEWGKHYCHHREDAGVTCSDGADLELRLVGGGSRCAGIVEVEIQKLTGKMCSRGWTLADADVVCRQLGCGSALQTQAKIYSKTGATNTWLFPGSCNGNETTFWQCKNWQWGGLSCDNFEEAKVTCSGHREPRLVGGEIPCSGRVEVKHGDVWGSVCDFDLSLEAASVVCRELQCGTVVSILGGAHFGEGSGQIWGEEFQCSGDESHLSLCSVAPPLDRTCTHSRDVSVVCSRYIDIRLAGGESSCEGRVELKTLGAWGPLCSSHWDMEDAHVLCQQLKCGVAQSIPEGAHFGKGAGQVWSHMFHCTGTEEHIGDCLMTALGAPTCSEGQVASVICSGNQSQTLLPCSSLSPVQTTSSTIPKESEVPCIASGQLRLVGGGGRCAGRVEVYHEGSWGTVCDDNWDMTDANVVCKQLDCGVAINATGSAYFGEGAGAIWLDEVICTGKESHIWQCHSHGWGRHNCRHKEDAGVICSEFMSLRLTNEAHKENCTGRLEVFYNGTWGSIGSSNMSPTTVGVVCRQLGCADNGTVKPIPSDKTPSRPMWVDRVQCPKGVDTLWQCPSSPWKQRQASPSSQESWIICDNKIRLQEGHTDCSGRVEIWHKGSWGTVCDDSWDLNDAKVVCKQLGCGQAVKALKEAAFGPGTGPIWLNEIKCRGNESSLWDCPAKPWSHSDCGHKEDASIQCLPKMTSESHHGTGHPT

[4] = target: T3, recombinant mouse macrophage mannose receptor rmMMR/CD206 (mouse, UniProt Q61830 20-1388, limits assumed); assay: fluorescence anisotropy, in solution, 50 nM peptide and 1 µM protein
T3 construct: Bought recombinant protein; also called mouse recombinant CD206; MRC1
T3 sequence (looked up): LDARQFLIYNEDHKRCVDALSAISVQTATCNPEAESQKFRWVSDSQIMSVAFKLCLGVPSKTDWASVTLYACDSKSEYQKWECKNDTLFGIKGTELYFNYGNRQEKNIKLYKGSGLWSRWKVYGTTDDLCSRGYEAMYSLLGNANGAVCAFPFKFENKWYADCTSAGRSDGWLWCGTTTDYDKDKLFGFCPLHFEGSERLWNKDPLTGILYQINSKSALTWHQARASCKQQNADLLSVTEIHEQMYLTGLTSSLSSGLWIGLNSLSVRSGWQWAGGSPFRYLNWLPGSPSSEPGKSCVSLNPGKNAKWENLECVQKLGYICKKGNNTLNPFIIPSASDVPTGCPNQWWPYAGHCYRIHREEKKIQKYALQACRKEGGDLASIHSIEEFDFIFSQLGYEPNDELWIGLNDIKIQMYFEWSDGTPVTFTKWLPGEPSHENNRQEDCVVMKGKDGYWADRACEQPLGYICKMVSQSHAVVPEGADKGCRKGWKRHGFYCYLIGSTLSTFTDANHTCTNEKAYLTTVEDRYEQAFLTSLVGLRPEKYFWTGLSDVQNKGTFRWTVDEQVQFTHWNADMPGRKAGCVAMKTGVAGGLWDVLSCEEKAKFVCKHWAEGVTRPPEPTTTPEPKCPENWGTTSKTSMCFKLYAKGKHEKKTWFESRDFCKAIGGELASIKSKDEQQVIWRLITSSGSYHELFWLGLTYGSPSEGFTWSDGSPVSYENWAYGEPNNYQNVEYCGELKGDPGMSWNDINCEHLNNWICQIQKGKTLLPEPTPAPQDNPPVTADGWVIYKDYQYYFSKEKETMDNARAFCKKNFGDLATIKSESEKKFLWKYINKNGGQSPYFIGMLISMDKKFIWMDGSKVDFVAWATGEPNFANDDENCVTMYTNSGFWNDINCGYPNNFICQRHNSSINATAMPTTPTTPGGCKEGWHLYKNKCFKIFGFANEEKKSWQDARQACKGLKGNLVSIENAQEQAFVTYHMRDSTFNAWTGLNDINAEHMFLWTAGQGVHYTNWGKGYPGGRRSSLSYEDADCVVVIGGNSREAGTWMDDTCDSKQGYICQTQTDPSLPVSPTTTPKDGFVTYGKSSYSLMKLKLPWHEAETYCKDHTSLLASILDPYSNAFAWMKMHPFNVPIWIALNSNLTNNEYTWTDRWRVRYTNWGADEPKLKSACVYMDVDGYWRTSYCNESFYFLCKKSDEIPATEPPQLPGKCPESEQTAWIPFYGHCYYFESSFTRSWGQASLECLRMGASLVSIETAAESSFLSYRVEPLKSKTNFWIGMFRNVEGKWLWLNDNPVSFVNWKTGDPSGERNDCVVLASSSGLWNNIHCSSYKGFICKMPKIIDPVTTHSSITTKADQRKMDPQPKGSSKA
Description: In all experiments, FA signal measurements were done under pseudo first-order conditions with 50 nM singly labelled FAM peptides and 1 μM proteins. […] Assays were carried out in kinetic mode in a total volume of 30 μl at 25° C. on the PHERAstar (BMG Labtech, Germany) microplate reader using an optical module with excitation and emission filters of 485 nm (slit 10 nm) and 520 nm (slit 10 nm), respectively. Dual emission detection mode allows simultaneous recording of intensities that are parallel (l) and perpendicular (1) to the plane of excitation light. Sensitivities of channels (G factor) were corrected with gain adjustment of the photomultiplier tubes (PMTs) using fluorescein as a standard. The background fluorescence (receptor and buffer components in the absence of fluorescent ligand) was subtracted independently from all intensity channels. FA signals at time t after initiation of binding reaction was calculated as parameters r(t) from the equation: […]

[5] = target: T3, recombinant mouse macrophage mannose …; assay: fluorescence anisotropy, in solution, kinetic mode

rat anti-CD206 antibody (Bio-Rad, product code MCA2235GA)
reduction of FAM-UNO binding [1]: 25%

B1: FAM-UNO (cyclic, disulfide-bridged FAM-labeled CSPGAKVRC) (peptide)
peptide: {FAM-Ahx}-CSPGAKVRC
modifications: disulfide 1-9
notes: Cyclic CX7C peptide from a phage library, used as a synthetic FAM-labeled peptide without reduction; also called FAM-labeled UNO
binding result [2]: no binding (tested: 100 nM FAM peptide, 0.4 µM protein) | binding result [3]: binds

{FAM-Ahx}-CSPGAK (also called linear CSPGAK) [FAM-CSPGAK]
binding result (recombinant mouse CD163): no binding (tested: 50 nM FAM peptide, 1 µM protein) | binding result [4]: binds

B2: FAM-CPMTDNE (control peptide) (peptide)
peptide: {FAM-Ahx}-CPMTDNE
notes: Control peptide of the fluorescence anisotropy assay
binding result [5]: no binding (tested: 50 nM FAM peptide, 1 µM protein)
